Common to all, as to experiment: purified protein
Holding throughout (details): 100 μM DCPIP as electron acceptor, 50 mM Tris-HCl, 1 mM EDTA, pH 8.0, 37°C, corrected to 100% Mo saturation

Substrate in data set [1]: c1ccc2c(c1)cnc1ccccc12
Substrate in data set [2]: O=Cc1ccccc1
The class given is biochemical, Mus musculus.

Substrate in data set [3]: c1ncc2[nH]cnc2n1
In kind it is biochemical, Mus musculus.

Substrate in data set [4]: CCCCC=O
In kind it is biochemical, Mus musculus.

Substrate in data set [5]: O=Cc1ccccc1O
In kind it is biochemical, Mus musculus.

Substrate in data set [6]: c1ccc2cnncc2c1
In kind it is biochemical, Mus musculus.

B1: mAOX3 (Mus musculus) (protein)
chain: MSPSKESDELIFFVNGKKVTERNADPEVNLLFYLRKVIRLTGTKYGCGGGDCGACTVMISRYDPISKRISHFSATACLVPICSLHGAAVTTVEGIGSTKTRIHPVQERIAKGHGTQCGFCTPGMVMSIYTLLRNHPEPSTEQIMETLGGNLCRCTGYRPIVESAKSFCPSSTCCQMNGEGKCCLDEEKNEPERKNSVCTKLYEKKEFQPLDPTQELIFPPELMRMAEESQNTVLTFRGERTTWIAPGTLNDLLELKMKHPSAPLVIGNTYLGLHMKFTDVSYPIIISPARILELFVVTNTKQGLTLGAGLSLTQVKNVLSDVVSRLPKEKTQIYCALLKQLKTLAGQQIRNVASLGGHIISRLPTSDLNPILGIGNCILNVASTEGIQQIPLNDHFLAGVPDAILKPEQVLISVFVPRSSKWEFVSAFRQAPRQQNAFATVNAGMKVVFKEDTNTITDLGILYGGIGATVISADKSCRQLIGRCWDEEMLDDAGKMICEEVSLLMAAPGGMEEYRKTLAISFLFMFYLDVLKQLKTRDPHKYPDISQKLLHILEDFPLTMPYGMQSFQDVDFQQPLQDPIGRPIMHQSGIKHATGEAVFCDDMSVLPGELFLAVVTSSKSHAKIISLDASEALASLGVVDVVTARDVPGDNGREEESLYAQDEVICVGQIVCAVAADSYAHAQQAAKKVKIVYQDIEPMIVTVQDALQYESFIGPERKLEQGNVEEAFQCADQILEGEVHLGGQEHFYMETQSVRVVPKGEDKEMDIYVSSQDAAFTQEMVARTLGIPKNRINCHVKRVGGAFGGKASKPGLLASVAAVAAQKTGRPIRFILERRDDMLITGGRHPLLGKYKIGFMNNGKIKAADIQLYINGGCTPDDSELVIEYALLKLENAYKIPNLRVRGRVCKTNLPSNTAFRGFGFPQGAFVTETCMSAVAAKCRLPPEKVRELNMYRTIDRTIHNQEFDPTNLLQCWEACVENSSYYNRKKAVDEFNQQRFWKKRGIAIIPMKFSVGFPKTFYYQAAALVQIYTDGSVLVAHGGVELGQGINTKMIQVASRELKIPMSYIHLDEMSTVTVPNTVTTGASTGADVNGRAVQNACQILMKRLEPIIKQNPSGTWEEWVKEAFVQSISLSATGYFRGYQADMDWEKGEGDIFPYFVFGAACSEVEIDCLTGAHKNIRTDIVMDGSFSINPAVDIGQIEGAFVQGLGLYTLEELKYSPEGVLYTRGPHQYKIASVTDIPEEFHVSLLTPTPNPKAIYSSKGLGEAGTFLGCSVFFAIAAAVAAAREERGLSPIWAINSPATAEVIRMACEDQFTNLVPQTDSKCCKPWSIPVA
notes: recombinant from E. coli TP1000 (plasmid pMMA1), Ni-NTA and Superdex 200 purified, chemically sulfurated, dimer (300 kDa)
For B1, the Km in the data set “purified protein [1]” is 10.8 ± 1.8 µM; in the data set “purified protein [2]”, 0.8 ± 0.1 µM; in the data set “purified protein [3]”, 3181 ± 334 µM. Further, the kcat in the data set “purified protein [1]” is 2.353 ± 0.0917 s⁻¹; in the data set “purified protein [2]” it was 2.512 ± 0.06 s⁻¹; in “purified protein [3]” it was 7.862 ± 0.298 s⁻¹.

B2: mAOX2 (Mus musculus) (protein)
chain: MPCPAQISDDLEFFVNGRKVTEKNVDPEVTLLAFLRKNLCLTGTKDACGTGGCGACTVMVSQHDPVCKKTRHFSVMACLVPLCSLHGAAVTTVEGVGSIKTRLHPVQERIAKSHGTQCGFCTPGMVMSIYTLLRNHPQPSEEQLMEALGGNLCRCTGYRPILESGRTFCMEPDGCPQKGTGQCCLDQKESDSSGSKSDICTKLFVKDEFQPLDPTQELIFPPELLRMAENPEKQTLTFYGERITWIAPGTLQELLVLKAKYPEAPLISGNTALGPAMKSQGHFYPVLLSPARIPDLRMVTKTSGGLTIGACCSLAQVKDILAESISELPQEKTQTYRALLKHLRSLAGQQIRNMASLGGHVISRHCYSDLNPILSVGNTTLNLLSEEGPRQIPLSGHFLAGLASADLKPEEILGSVYIPHSQKREFVSAFRQAQCHQNALPDVNAGMRVLFREGTDVIEELSIAYGGVGPTTVSAQRSCQQLLGRRWNALMLDEACRLLLDEVSLPGSALGGKVEFRRTLIVSLFFKFYLEVLQELKADQKLPPESTDSQRYPEIADRFLSSLGDFQVTLPRGVQTYQRVDSHQPLQDPVGRPIMHLSGLKHATGEAVFCDDIPRVDKELFMALVTSTRAHARIISIDSSEVLDLPGVVDVITAEDIPGNNGEEDDKLLAVDKVLCVGQVICAVVAETDVQAKRATEKIKITYEDLKPVIFTIEDAIKHNSFLCPEKKLEQGNIEEAFENVDQVAEGTVHVGGQEHFYMETQRVLVIPKTEDKELDMYVSTQDPAHVQKTVSSTLNIPISRITCHVKRVGGGFGGKVGRPAVFGAIAAVGAVKTGHPIRLVLDREDDMLITGGRHPLFAKYKVGFMNSGRIKALDIECYINGGCTLDDSELVTEFLVLKLENAYKIRNLRLRGRACMTNLPSNTAFRGFGFPQGALVTESCITAVAAKCGLPPEKIREKNMYKTVDKTIYKQAFNPDPLIRCWNECLDKSSFHIRRTRVDEFNKKSYWKKRGIAIVPMKFSVGFAATSYHQAAALVHIYTDGSVLVAHGGNELGQGIHTKMLQVASRELKIPLSYLHICETSTTTVPNTIATAASVGADVNGRAVQNACQILLKRLEPVIKKNPEGTWRDWIEAAFEKRISLSATGYFRGYKAFMDWEKGEGDPFPYYVYGAACSEVEIDCLTGAHKKIRTDIVMDACCSLNPAIDIGQIEGAFIQGMGLYTTEELLYSPEGVLYSRSPDKYKIPTVTDVPEQFNVSLLPSSQTPLTLYSSKGLGESGMFLGSSVFFAIVDAVAAARRQRDIAEDFTVKSPATPEWVRMACADRFTDMIPRDDPKTFKPWSIPIA
notes: recombinant from E. coli TP1000 (codon-optimized plasmid pMAOX2co), Ni-NTA and Superdex 200 purified, chemically sulfurated, dimer (300 kDa)
In the case of B2, the Km in “purified protein [1]” is 1.9 ± 0.3 µM; in “purified protein [3]”, 298.4 µM. Besides, the kcat in “purified protein [1]” came out at 1.962 ± 0.0817 s⁻¹.

B3: mAOX4 (Mus musculus) (protein)
chain: MPSVSESDELIFFVNGKKVIEKNPDPEKNLLFYTRKVLNLTGTKYSCGTGGCGACTVMVSRYNPKTRKIHHYPATACLVPICWLHGAAITTVEGVGSIKKRVHPVQERLAKCHGTQCGFCSPGMVMSIYTLLRNHPEPTPDQITEALGGNLCRCTGYRPIVESGKTFSQKSTVCQMKGSGKCCMDPDEKCLESREKKMCTKLYNEDEFQPFDPSQEPIFPPELIRMAEDPNKRRLTFQGKRTTWIIPVTLNDLLELKASYPEAPLVMGNTTVGPGIKFNDEFYPVFISPLGVPELNLMDTTNNGVTIGAGYSLAQLKDTLDFLVSEQPKEKTKTFHALQKHLRTLAGPQIRNMATLGGHTASRPNFSDLNPILAAGNATINVVSREGKDRQLPLNGPFLEKLPEADLKPEEVILSIFIPYTAQWQFVSGLRLAQRQENAFAIVNAGMSVEFEEGTNTIKDLKMFFGSVAPTVVSASQTCKQLIGRQWDDQMLSDACQLVLQEIRIPPDAEGGMVEYRRTLIISLLFKFYLKVQRWLNEMDPQKFPDIPGKFVSALDDFPIETPQGIQMFQCVDPKQPQKDPVGHPIMHQSGIKHATGEAIFIDDMPPIDQELCLAVVTSTRAHAKITSLDVSEALACPGVVDVITAEDVPGENDHNGEILYAQSEVICVGQIICTVAADTYIHAKEAAKRVKIAYDDIEPTIITIEEALEHNSFLSPEKKIEQGNVDYAFKHVDQIVEGEIHVEGQEHFYMETQTILAIPQTEDKEMVLHLGTQFPTHVQEFVSAALNVPRSRIACHMKRAGGAFGGKVTKPALLGAVCAVAANKTGRPIRFILERSDDMLITAGRHPLLGKYKIGFMNNGEIRAADVEYYTNGGCTPDESELVIEFVVLKSENTYHIPNFRCRGRACKTNLPSNTAFRGFGFPQATVVVEAYIAAVASKCNLLPEEVREINMYKKTSKTAYKQTFNPEPLRRCWKECLEKSSFFARKKAAEEFNGNNYWKKRGLAVVPMKFSVAVPIAFYNQAAALVHIFLDGSVLLTHGGCELGQGLHTKMIQVASRELNVPKSYVHFSETSTTTVPNSAFTAGSMGADINGKAVQNACQILMDRLRPIIRKNPKGKWEEWIKMAFEESISLSATGYFKGYQTNMDWKKEEGDPYPYYVYGAACSEVEVDCLTGAHKLLRTDIFVDAAFSINPALDIGQVEGAFIQGMGFYTTEELKYSPKGVLYSRGPEDYKIPTITEIPEEFYVTLVHSRNPIAIYSSKGLGEAGMFLGSSVLFAIYDAVTTARKERGLSDIFPLNSPATPEVIRMACTDQFTEMIPRDDPSTFTPWSIHVS
notes: recombinant from E. coli TP1000 (plasmid pMAOX4), Ni-NTA and Superdex 200 purified, chemically sulfurated, dimer (300 kDa)
Take B3: the Km came to 48.3 ± 8.7 µM in “purified protein [4]”; 2.2 ± 0.2 µM in the data set “purified protein [2]”; 13.2 ± 2.4 µM in the data set “purified protein [5]”; 8.3 ± 0.9 µM in the data set “purified protein [6]”; 12344 µM in “purified protein [3]”. The catalytic constant (kcat) in “purified protein [4]” stood at 2.8 ± 0.22 s⁻¹; in the data set “purified protein [2]” it was 1.52 ± 0.0383 s⁻¹; in “purified protein [5]” it was 3.42 ± 0.112 s⁻¹; in “purified protein [6]”, 5.51 ± 0.142 s⁻¹. Besides, the kcat/Km is 58300 M⁻¹ s⁻¹ in “purified protein [4]”, 693000 M⁻¹ s⁻¹ in “purified protein [2]”, 260000 M⁻¹ s⁻¹ in the data set “purified protein [5]” and 665000 M⁻¹ s⁻¹ in the data set “purified protein [6]”.

Source of the values: paper PMC5784979, “Direct comparison of the four aldehyde oxidase enzymes present in mouse gives insight into their substrate specificities” (PLoS ONE, 2018).
